Laboratory results taken from patent US20190233494A1 (Sanofi, published 2019).
Starred links: 1 amine or outer side, 2 acyl side, 3 side chain; linkers in the order of their positions; H or OH if unused. Non-standard residues stand in square brackets, D forms with d. Groups on a side chain read outwards from the residue. *: point of attachment. TTDS = 4-[3-[2-[2-(3-aminopropoxy)ethoxy]ethoxy]propylamino]-4-oxo-butanoyl; γGlu = O=C(O)[C@H](CCC(=O)[*:2])N[*:1]; Stearoyl = CCCCCCCCCCCCCCCCCC(=O)*; Palmitoyl = CCCCCCCCCCCCCCCC(=O)*; Cit = NC(=O)NCCC[C@H](N)C(=O)O; αMeK = C[C@](N)(CCCCN)C(=O)O; hLys = NCCCCC[C@H](N)C(=O)O; AEEA = NCCOCCOCC(=O)O; Aib = CC(C)(N)C(=O)O

T1: RXFP1 receptor (endogenous, on OVCAR5 cells) (UniProt Q9HBX9 1-757, limits assumed)
T1 sequence (looked up): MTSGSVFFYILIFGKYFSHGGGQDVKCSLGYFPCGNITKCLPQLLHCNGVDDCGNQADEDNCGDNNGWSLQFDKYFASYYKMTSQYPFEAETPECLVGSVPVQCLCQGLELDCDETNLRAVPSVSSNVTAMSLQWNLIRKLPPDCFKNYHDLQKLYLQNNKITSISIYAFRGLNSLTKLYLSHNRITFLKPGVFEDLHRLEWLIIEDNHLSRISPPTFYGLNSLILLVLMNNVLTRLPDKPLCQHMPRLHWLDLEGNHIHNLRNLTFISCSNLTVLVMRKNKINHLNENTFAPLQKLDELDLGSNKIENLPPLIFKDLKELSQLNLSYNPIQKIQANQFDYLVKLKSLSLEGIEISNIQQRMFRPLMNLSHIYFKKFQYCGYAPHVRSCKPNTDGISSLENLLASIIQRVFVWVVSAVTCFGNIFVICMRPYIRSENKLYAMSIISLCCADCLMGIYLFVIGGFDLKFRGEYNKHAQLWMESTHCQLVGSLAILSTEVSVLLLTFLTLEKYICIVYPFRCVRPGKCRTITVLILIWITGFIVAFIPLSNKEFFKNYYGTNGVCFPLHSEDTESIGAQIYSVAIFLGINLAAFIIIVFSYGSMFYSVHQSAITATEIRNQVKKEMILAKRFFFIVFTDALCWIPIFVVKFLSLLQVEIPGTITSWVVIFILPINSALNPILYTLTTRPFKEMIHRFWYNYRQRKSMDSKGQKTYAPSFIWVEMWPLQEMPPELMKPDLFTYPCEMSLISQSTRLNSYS


Biological target: T1, RXFP1 receptor (endogenous, on OVCAR5 …)
Assay: cell-based or functional assay

Row | Binder | EC50 (nM), OVCAR 5 cells (cAMP) [nM] | EMax, OVCAR 5 cells (cAMP) [%]
1 | Ac-LEGRERVRAK(Ac)I[Aib][Aib]EGK([TTDS-TTDS-TTDS-γGlu-γGlu-γGlu-Palmitoyl])STWS[Aib]RRK(Ac)-NH2 [peptide of SEQ ID NO: 31] | 0.19 | 
2 | Ac-LEGREKVRAK(Ac)I[Aib][Aib]EGK([TTDS-TTDS-TTDS-γGlu-γGlu-γGlu-Palmitoyl])STW[Dser]KRAK(Ac)-NH2 [peptide of SEQ ID NO: 44] | 2.2 | 97
3 | Ac-LEGRERVRAK(Ac)I[Aib][Aib]EGK([TTDS-TTDS-TTDS-γGlu-γGlu-γGlu-Palmitoyl])STFS[αMeK]RAK(Ac)-NH2 [peptide of SEQ ID NO: 27] | 1.8 | 98
4 | Ac-LEGREKVRAK(Ac)I[Aib][Aib]EGK([TTDS-TTDS-γGlu-γGlu-γGlu-Stearoyl])STFS[αMeK]RAK(Ac)-NH2 [peptide of SEQ ID NO: 34] | 0.14 | 90
5 | Ac-LEGREKVRAK(Ac)I[Aib][Aib]EGK([TTDS-TTDS-TTDS-γGlu-γGlu-γGlu-Palmitoyl])STFS[Dlys]RAK(Ac)-NH2 [peptide of SEQ ID NO: 36] | 3.6 | 93
6 | Ac-LEGRE[hLys]VRAK(Ac)I[Aib][Aib]EGK([TTDS-TTDS-TTDS-γGlu-γGlu-γGlu-Palmitoyl])STFS[αMeK]RAK(Ac)-NH2 [peptide of SEQ ID NO: 28] | 0.62 | 88
7 | Ac-LEGREKVR[Aib]K(Ac)I[Aib][Aib]EGK([TTDS-TTDS-TTDS-γGlu-γGlu-γGlu-Palmitoyl])STFS[αMeK]RAK(Ac)-NH2 [peptide of SEQ ID NO: 29] | 1.6 | 88
8 | Ac-LEGREKVRAK(Ac)I[Aib][Aib]EGK([AEEA-AEEA-AEEA-AEEA-γGlu-γGlu-γGlu-Palmitoyl])STWS[αMeK]RAK(Ac)-NH2 (SMILES CCCCCCCCCCCCCCCC(=O)N[C@@H](CCC(=O)N[C@@H](CCC(=O)N[C@@H](CCC(=O)NCCOCCOCC(=O)NCCOCCOCC(=O)NCCOCCOCC(=O)NCCOCCOCC(=O)NCCCC[C@H](NC(=O)CNC(=O)[C@H](CCC(=O)O)NC(=O)C(C)(C)NC(=O)C(C)(C)NC(=O)[C@@H](NC(=O)[C@H](CCCCNC(C)=O)NC(=O)[C@H](C)NC(=O)[C@H](CCCNC(=N)N)NC(=O)[C@@H](NC(=O)[C@H](CCCCN)NC(=O)[C@H](CCC(=O)O)NC(=O)[C@H](CCCNC(=N)N)NC(=O)CNC(=O)[C@H](CCC(=O)O)NC(=O)[C@H](CC(C)C)NC(C)=O)C(C)C)[C@@H](C)CC)C(=O)N[C@@H](CO)C(=O)N[C@H](C(=O)N[C@@H](Cc1c[nH]c2ccccc12)C(=O)N[C@@H](CO)C(=O)N[C@@](C)(CCCCN)C(=O)N[C@@H](CCCNC(=N)N)C(=O)N[C@@H](C)C(=O)N[C@@H](CCCCNC(C)=O)C(N)=O)[C@@H](C)O)C(=O)O)C(=O)O)C(=O)O) [peptide of SEQ ID NO: 42] | 1.5 | 84
9 | Ac-LEGREKVRAK(Ac)I[Aib][Aib]EGK([TTDS-TTDS-γGlu-γGlu-γGlu-Palmitoyl])STWS[Aib]RKK(Ac)-NH2 [peptide of SEQ ID NO: 4] | 1.5 | 89
10 | Ac-LEGREKVRAK(Ac)I[Aib][Aib]EGK([TTDS-TTDS-TTDS-γGlu-γGlu-γGlu-Stearoyl])STWS[αMeK]RAK(Ac)-NH2 [peptide of SEQ ID NO: 30] | 0.21 | 89
11 | Ac-LEGREFVRAK(Ac)I[Aib][Aib]EGK([TTDS-TTDS-TTDS-γGlu-γGlu-γGlu-Palmitoyl])STWS[Aib]RRK(Ac)-NH2 [peptide of SEQ ID NO: 39] | 8.7 | 93
12 | Ac-LEGRELVRAK(Ac)I[Aib][Aib]EGK([TTDS-TTDS-TTDS-γGlu-γGlu-γGlu-Palmitoyl])STWS[Aib]RRK(Ac)-NH2 [peptide of SEQ ID NO: 37] | 5.6 | 98
13 | LEGREKVRAXIXXEGXSTFSXRAX (Ac-L-E-G-R-E-K-V-R-A-K(Ac)-I-Aib-Aib-E-G-K(PEG2DGA-PEG2DGA-PEG2DGA-gE-gE-gE-Stea)-S-T-F-S-Mly-R-A-K(Ac)-NH2) [peptide of SEQ ID NO: 32] | 0.1 | 97
14 | Ac-LEGREKVRAK(Ac)I[Aib][Aib]EGK([TTDS-TTDS-TTDS-γGlu-γGlu-γGlu-Palmitoyl])STW[Aib]KRAK(Ac)-NH2 [peptide of SEQ ID NO: 35] | 2.33 | 91

Second part, the binder after the results:

Row | EC50 (nM), OVCAR 5 cells (cAMP) [nM] | EMax, OVCAR 5 cells (cAMP) [%] | Binder
15 | 0.1 | 98 | Ac-LEGREKVRAK(Ac)I[Aib][Aib]EGK([TTDS-TTDS-TTDS-γGlu-γGlu-γGlu-γGlu-Stearoyl])STWS[Aib]RKK(Ac)-NH2 [peptide of SEQ ID NO: 51]
16 | 0.64 | 95 | Ac-LEGREKVRAKI[Aib][Aib]EGK([TTDS-TTDS-TTDS-γGlu-γGlu-γGlu-Palmitoyl])STFS[αMeK]RAK(Ac)-NH2 [peptide of SEQ ID NO: 47]
17 | 0.45 | 96 | Ac-LEGREKVRAQI[Aib][Aib]EGK([TTDS-TTDS-TTDS-γGlu-γGlu-γGlu-Palmitoyl])STFS[αMeK]RAK(Ac)-NH2 [peptide of SEQ ID NO: 48]
18 | 0.18 |  | Ac-LEGRERVRAK(Ac)I[Aib][Aib]EGK([TTDS-TTDS-TTDS-γGlu-γGlu-γGlu-Palmitoyl])STWS[Aib]RRK(Ac)-NH2 [peptide of SEQ ID NO: 55]
19 | 0.16 | 96 | Ac-LEGREKVRAK(Ac)I[Aib][Aib]EGK([TTDS-TTDS-γGlu-γGlu-γGlu-γGlu-Stearoyl])STWS[Aib]RKK(Ac)-NH2 [peptide of SEQ ID NO: 54]
20 | 0.19 | 97 | Ac-LEGREKVRAK(Ac)I[Aib][Aib]EGK([TTDS-TTDS-TTDS-γGlu-γGlu-γGlu-Palmitoyl])STFS[αMeK]RAK-NH2 [peptide of SEQ ID NO: 49]
21 | 0.45 | 96 | Ac-LEGREKVRAK(Ac)I[Aib][Aib]EGK([AEEA-AEEA-AEEA-AEEA-AEEA-γGlu-γGlu-γGlu-Palmitoyl])STFS[αMeK]RAK(Ac)-NH2 (SMILES CCCCCCCCCCCCCCCC(=O)N[C@@H](CCC(=O)N[C@@H](CCC(=O)N[C@@H](CCC(=O)NCCOCCOCC(=O)NCCOCCOCC(=O)NCCOCCOCC(=O)NCCOCCOCC(=O)NCCOCCOCC(=O)NCCCC[C@H](NC(=O)CNC(=O)[C@H](CCC(=O)O)NC(=O)C(C)(C)NC(=O)C(C)(C)NC(=O)[C@@H](NC(=O)[C@H](CCCCNC(C)=O)NC(=O)[C@H](C)NC(=O)[C@H](CCCNC(=N)N)NC(=O)[C@@H](NC(=O)[C@H](CCCCN)NC(=O)[C@H](CCC(=O)O)NC(=O)[C@H](CCCNC(=N)N)NC(=O)CNC(=O)[C@H](CCC(=O)O)NC(=O)[C@H](CC(C)C)NC(C)=O)C(C)C)[C@@H](C)CC)C(=O)N[C@@H](CO)C(=O)N[C@H](C(=O)N[C@@H](Cc1ccccc1)C(=O)N[C@@H](CO)C(=O)N[C@@](C)(CCCCN)C(=O)N[C@@H](CCCNC(=N)N)C(=O)N[C@@H](C)C(=O)N[C@@H](CCCCNC(C)=O)C(N)=O)[C@@H](C)O)C(=O)O)C(=O)O)C(=O)O) [peptide of SEQ ID NO: 45]
22 | 0.15 | 91 | Ac-LEGREKVRA[Cit]I[Aib][Aib]EGK([TTDS-TTDS-TTDS-γGlu-γGlu-γGlu-Stearoyl])STFS[αMeK]RAK(Ac)-NH2 [peptide of SEQ ID NO: 56]
